US20240132578A1

How the values were obtained:
[1] = biological target: HIV-1 Env of isolate THR0.18 (HIV-1); assay: cell-based or functional assay
[2] = biological target: HIV-1 92RW020 Env (HIV-1); assay: cell-based or functional assay
[3] = biological target: HIV-1 Env of isolate NL43 (HIV-1); assay: cell-based or functional assay
[4] = biological target: HIV-1 Env of isolate MGRM-Chronic-B-017 (HIV-1); assay: cell-based or functional assay
[5] = biological target: HIV-1 Env of isolate 94UG103 (pseudovirus) (HIV-1); assay: cell-based or functional assay
[6] = biological target: HIV-1 Env of isolate MGRM-AG-011 (subtype AG) (HIV-1); assay: cell-based or functional assay
[7] = biological target: HIV-1 Env of isolate 92WR021 (pseudovirus) (HIV-1); assay: cell-based or functional assay
[8] = biological target: HIV-1 Env of isolate 93WR029 (pseudovirus) (HIV-1); assay: cell-based or functional assay
[9] = biological target: HIV-1 Env of isolate JRCSF (HIV-1) (UniProt P20871); assay: cell-based or functional assay
[10] = biological target: HIV-1 Env of isolate MGRM-Chronic-B-010 (HIV-1); assay: cell-based or functional assay
[11] = biological target: HIV-1 Env of isolate MGRM-Chronic-B-023 (HIV-1); assay: cell-based or functional assay
[12] = biological target: HIV-1 Env of isolate MGRM-Chronic-B-024 (HIV-1); assay: cell-based or functional assay
[13] = biological target: HIV-1 Env of isolate MGRM-A-014 (subtype A) (HIV-1); assay: cell-based or functional assay
[14] = biological target: HIV-1 Env of isolate SC422661.8 (HIV-1); assay: cell-based or functional assay
[15] = biological target: HIV-1 Env of isolate 93UG077 (pseudovirus) (HIV-1); assay: cell-based or functional assay
[16] = biological target: HIV-1 Env of isolate MGRM-Chronic-B-012 (HIV-1); assay: cell-based or functional assay
[17] = biological target: HIV-1 Env of isolate TRJ04551.58 (HIV-1); assay: cell-based or functional assay
[18] = biological target: HIV-1 Env of isolate MGRM-Chronic-B-020 (HIV-1); assay: cell-based or functional assay
[19] = biological target: HIV-1 Env of isolate MGRM-Chronic-B-018 (HIV-1); assay: cell-based or functional assay
[20] = biological target: HIV-1 Env of isolate MGRM-Chronic-B-011 (HIV-1); assay: cell-based or functional assay
[21] = biological target: HIV-1 Env of isolate 92WR020 (pseudovirus) (HIV-1); assay: cell-based or functional assay
[22] = biological target: HIV-1 Env of isolate 97ZA012 (HIV-1); assay: cell-based or functional assay
[23] = biological target: HIV-1 Env of isolate SF162 (HIV-1) (UniProt P19550); assay: cell-based or functional assay
[24] = biological target: HIV-1 Env of isolate VLGCB3 (HIV-1); assay: cell-based or functional assay
[25] = biological target: HIV-1 Env of isolate 92UG031 (pseudovirus) (HIV-1); assay: cell-based or functional assay
[26] = biological target: HIV-1 Env of isolate 92UG037 (pseudovirus) (HIV-1); assay: cell-based or functional assay
[27] = biological target: HIV-1 Env of isolate 92WR026 (pseudovirus) (HIV-1); assay: cell-based or functional assay
[28] = biological target: HIV-1 Env of isolate TRO.11 (HIV-1); assay: cell-based or functional assay
[29] = biological target: HIV-1 Env of isolate 98IN022 (HIV-1); assay: cell-based or functional assay
[30] = biological target: HIV-1 Env of isolate QH0692.42 (HIV-1); assay: cell-based or functional assay
[31] = biological target: HIV-1 Env of isolate 92WR024 (pseudovirus) (HIV-1); assay: cell-based or functional assay
[32] = biological target: HIV-1 Env of isolate 93IN905 (HIV-1); assay: cell-based or functional assay
[33] = biological target: HIV-1 Env of isolate MGRM-A-003 (pseudovirus) (HIV-1); assay: cell-based or functional assay
[34] = biological target: HIV-1 Env of isolate 93MW959 (HIV-1); assay: cell-based or functional assay
[35] = biological target: HIV-1 Env of isolate PVO.4 (HIV-1); assay: cell-based or functional assay
[36] = biological target: WT JR-FL gp120 (HIV-1 JR-FL); assay: ELISA, antigen-coated wells, mAb titrated; EC50 by nonlinear regression
[37] = biological target: HIV-1 JR-CSF Env I420A (HIV-1 (isolate JR-CSF)) (UniProt P20871); assay: cell-based or functional assay

5329_C19 (PGT-136) (antibody)
IC50 (µg/mL), pseudovirus neutralization [1]: > 50 µg/mL
IC50, pseudovirus neutralization [2]: 0.738 µg/mL
IC50 (µg/mL), pseudovirus neutralization [3]: 27.7 µg/mL
IC50 (µg/mL), pseudovirus neutralization [4]: > 50 µg/mL
IC50 (µg/mL), pseudovirus neutralization [5]: > 50 µg/mL
IC50, pseudovirus neutralization [6]: > 50 µg/mL
IC50 (µg/mL), pseudovirus neutralization [7]: > 50 µg/mL
IC50 (µg/mL), pseudovirus neutralization [8]: > 50 µg/mL
IC50 (µg/mL), pseudovirus neutralization [9]: > 50 µg/mL
IC50 (µg/mL), pseudovirus neutralization [10]: > 50 µg/mL
IC50 (µg/mL), pseudovirus neutralization [11]: > 50 µg/mL
IC50 (µg/mL), pseudovirus neutralization [12]: > 50 µg/mL
IC50, pseudovirus neutralization [13]: > 50 µg/mL
IC50 (µg/mL), pseudovirus neutralization [14]: > 50 µg/mL
IC50 (µg/mL), pseudovirus neutralization [15]: > 50 µg/mL
IC50 (µg/mL), pseudovirus neutralization [16]: 43.1 µg/mL
IC50 (µg/mL), pseudovirus neutralization [17]: > 50 µg/mL
IC50 (µg/mL), pseudovirus neutralization [18]: > 50 µg/mL
IC50 (µg/mL), pseudovirus neutralization [19]: > 50 µg/mL
IC50 (µg/mL), pseudovirus neutralization [20]: > 50 µg/mL
IC50 (µg/mL), pseudovirus neutralization [21]: 2.33 µg/mL
IC50 (µg/mL), pseudovirus neutralization [22]: > 50 µg/mL
IC50 (µg/mL), pseudovirus neutralization [23]: 0.482 µg/mL
IC50 (µg/mL), pseudovirus neutralization [24]: > 50 µg/mL
IC50 (µg/mL), pseudovirus neutralization [25]: > 50 µg/mL
IC50 (µg/mL), pseudovirus neutralization [26]: > 50 µg/mL
IC50 (µg/mL), pseudovirus neutralization [27]: > 50 µg/mL
IC50 (µg/mL), pseudovirus neutralization [28]: 0.073 µg/mL
IC50 (µg/mL), pseudovirus neutralization [29]: 13.6 µg/mL
IC50 (µg/mL), pseudovirus neutralization [30]: > 50 µg/mL
IC50 (µg/mL), pseudovirus neutralization [31]: > 50 µg/mL
IC50 (µg/mL), pseudovirus neutralization [32]: 0.011 µg/mL
IC50 (µg/mL), pseudovirus neutralization [33]: > 50 µg/mL
IC50 (µg/mL), pseudovirus neutralization [34]: > 50 µg/mL
IC50 (µg/mL), pseudovirus neutralization [35]: > 50 µg/mL
EC50 [36]: 0.2 µg/mL

5343_B08 (PGT-135) (antibody)
IC50 (µg/mL), pseudovirus neutralization [1]: > 50 µg/mL
IC50, pseudovirus neutralization [2]: 0.157 µg/mL
IC50 (µg/mL), pseudovirus neutralization [3]: 8.03 µg/mL
IC50 (µg/mL), pseudovirus neutralization [4]: > 50 µg/mL
IC50 (µg/mL), pseudovirus neutralization [5]: > 50 µg/mL
IC50, pseudovirus neutralization [6]: > 50 µg/mL
IC50 (µg/mL), pseudovirus neutralization [7]: > 50 µg/mL
IC50 (µg/mL), pseudovirus neutralization [8]: > 50 µg/mL
IC50 (µg/mL), pseudovirus neutralization [9]: 0.131 µg/mL
IC50 (µg/mL), pseudovirus neutralization [10]: > 50 µg/mL
IC50 (µg/mL), pseudovirus neutralization [11]: 0.329 µg/mL
IC50 (µg/mL), pseudovirus neutralization [12]: > 50 µg/mL
IC50, pseudovirus neutralization [13]: 0.636 µg/mL
IC50 (µg/mL), pseudovirus neutralization [14]: 21.8 µg/mL
IC50 (µg/mL), pseudovirus neutralization [15]: > 50 µg/mL
IC50 (µg/mL), pseudovirus neutralization [16]: 0.166 µg/mL
IC50 (µg/mL), pseudovirus neutralization [17]: > 50 µg/mL
Fold IC50 increase relative to wild-type (pseudovirus neutralization) [37]: 1.4 fold
IC50 (µg/mL), pseudovirus neutralization [18]: 0.057 µg/mL
IC50 (µg/mL), pseudovirus neutralization [19]: > 50 µg/mL
IC50 (µg/mL), pseudovirus neutralization [20]: > 50 µg/mL
IC50 (µg/mL), pseudovirus neutralization [21]: 0.067 µg/mL
IC50 (µg/mL), pseudovirus neutralization [22]: > 50 µg/mL
IC50 (µg/mL), pseudovirus neutralization [23]: 0.023 µg/mL
IC50 (µg/mL), pseudovirus neutralization [24]: 0.142 µg/mL
IC50 (µg/mL), pseudovirus neutralization [25]: > 50 µg/mL
IC50 (µg/mL), pseudovirus neutralization [26]: 3.67 µg/mL
IC50 (µg/mL), pseudovirus neutralization [27]: 0.068 µg/mL
IC50 (µg/mL), pseudovirus neutralization [28]: 0.03 µg/mL
IC50 (µg/mL), pseudovirus neutralization [29]: 0.014 µg/mL
IC50 (µg/mL), pseudovirus neutralization [30]: > 50 µg/mL
IC50 (µg/mL), pseudovirus neutralization [31]: > 50 µg/mL
IC50 (µg/mL), pseudovirus neutralization [32]: 0.011 µg/mL
IC50 (µg/mL), pseudovirus neutralization [33]: > 50 µg/mL
IC50 (µg/mL), pseudovirus neutralization [34]: > 50 µg/mL
IC50 (µg/mL), pseudovirus neutralization [35]: > 50 µg/mL
EC50 [36]: 0.1 µg/mL

5147_N06 (PGT-130) (antibody)
IC50 (µg/mL), pseudovirus neutralization [1]: > 50 µg/mL
IC50, pseudovirus neutralization [2]: 0.014 µg/mL
IC50 (µg/mL), pseudovirus neutralization [3]: > 50 µg/mL
IC50 (µg/mL), pseudovirus neutralization [4]: > 50 µg/mL
IC50 (µg/mL), pseudovirus neutralization [5]: 1.4 µg/mL
IC50, pseudovirus neutralization [6]: > 50 µg/mL
IC50 (µg/mL), pseudovirus neutralization [7]: 0.004 µg/mL
IC50 (µg/mL), pseudovirus neutralization [8]: 34.3 µg/mL
IC50 (µg/mL), pseudovirus neutralization [9]: 0.01 µg/mL
IC50 (µg/mL), pseudovirus neutralization [10]: 0.006 µg/mL
IC50 (µg/mL), pseudovirus neutralization [11]: > 50 µg/mL
IC50 (µg/mL), pseudovirus neutralization [12]: 5.78 µg/mL
IC50, pseudovirus neutralization [13]: 0.161 µg/mL
IC50 (µg/mL), pseudovirus neutralization [14]: > 50 µg/mL
IC50 (µg/mL), pseudovirus neutralization [15]: 21.4 µg/mL
IC50 (µg/mL), pseudovirus neutralization [16]: 0.373 µg/mL
IC50 (µg/mL), pseudovirus neutralization [17]: 0.023 µg/mL
Fold IC50 increase relative to wild-type (pseudovirus neutralization) [37]: 9.8 fold
IC50 (µg/mL), pseudovirus neutralization [18]: 0.014 µg/mL
IC50 (µg/mL), pseudovirus neutralization [19]: 31.9 µg/mL
IC50 (µg/mL), pseudovirus neutralization [20]: 0.153 µg/mL
IC50 (µg/mL), pseudovirus neutralization [21]: 0.039 µg/mL
IC50 (µg/mL), pseudovirus neutralization [22]: 1.32 µg/mL
IC50 (µg/mL), pseudovirus neutralization [23]: 0.007 µg/mL
IC50 (µg/mL), pseudovirus neutralization [24]: 4.6 µg/mL
IC50 (µg/mL), pseudovirus neutralization [25]: > 50 µg/mL
IC50 (µg/mL), pseudovirus neutralization [26]: 0.061 µg/mL
IC50 (µg/mL), pseudovirus neutralization [27]: 0.037 µg/mL
IC50 (µg/mL), pseudovirus neutralization [28]: 0.257 µg/mL
IC50 (µg/mL), pseudovirus neutralization [29]: > 50 µg/mL
IC50 (µg/mL), pseudovirus neutralization [30]: > 50 µg/mL
IC50 (µg/mL), pseudovirus neutralization [31]: > 50 µg/mL
IC50 (µg/mL), pseudovirus neutralization [32]: 0.02 µg/mL
IC50 (µg/mL), pseudovirus neutralization [33]: > 50 µg/mL
IC50 (µg/mL), pseudovirus neutralization [34]: 8.55 µg/mL
IC50 (µg/mL), pseudovirus neutralization [35]: 5.17 µg/mL
EC50 [36]: 0.2 µg/mL
